Positions count from the first letter of the chain named. Numbers in names are those of the source.

The record followed here is US20120316071A1 (published 2012).

Experiment [1] concerns the target T1, Recombinant Human DLL4 (R&D Systems Cat#1506-D4/CF) (human, UniProt Q9NR61 27-524).
T1 construct: Bought recombinant protein; also called delta-like protein 4; rHuman DLL4
Description: ECL Multispot (MSD), DLL4 spotted, 10 nM Fab.

Experiment [2] addresses T1, Recombinant Human DLL4 (R&D Systems …). Description: ELISA, DLL4 coated, 100 nM Fab, absorbance at 450 nm minus noise.
For experiment [3], the target named is T2, Recombinant Human DLL4 (R&D Systems Cat#1506-D4/CF) (human, UniProt Q9NR61 27-524).
T2 construct: Bought recombinant protein; also called delta-like protein 4; rHuman DLL4
Description: ECL (MSD) binding assay, immobilised DLL4, repeat experiment.

For experiment [4], the target named is T3, rHuman IGF-1 sR (insulin-like growth factor-1 soluble receptor), CF (R&D Systems Cat#391-GR) (human, UniProt P08069 31-932).
T3 construct: Bought recombinant soluble receptor
Description: ECL Multispot (MSD) assay, antigen spotted on plate, 10 nM Fab.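 Note: purified Fab bound to antigen spots for 1 h at 20 °C, then TAG detection antibody, electrochemiluminescence compared with each well's blank, ratio of 4 or more marks a hit.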

The target in experiment [5] is T4, rHuman ErbB2/Fc Chimera, CF (R&D Systems Cat#1129-ER) (human, UniProt P04626 23-652).
T4 construct: Bought recombinant protein
The description is as above.

The target in experiment [6] is T5, rHuman EGF R/Fc Chimera, CF (R&D Systems Cat#344-ER) (human, UniProt P00533 25-645).
T5 construct: Bought recombinant protein
Described as above.

Experiment [7] has as its target T6, rHuman HGF R/c-MET/Fc Chimera, CF (R&D Systems Cat#358-MT/CF) (human, UniProt P08581 25-932).
T6 construct: Bought recombinant protein; also called HGF R/Fc
The experiment is described as above.

Experiment [8] deals with T7, rHuman P-Cadherin/Fc Chimera, CF (R&D Systems Cat#861-PC) (human, UniProt P22223 108-654).
T7 construct: Bought recombinant protein
The description is as above.

In experiment [9] the target is T2, Recombinant Human DLL4 (R&D Systems …). Described as above.
Experiment [10] shares this target. Description: ECL (MSD) binding assay, DLL4 signal divided by blank, repeat experiment.
Experiment [11] addresses T8, rHuman EGF R/Fc Chimera, CF (R&D Systems Cat#344-ER) (human, UniProt P00533 25-645).
T8 construct: Bought from R&D Systems; also called epidermal growth factor receptor; Fc part of the bought chimera not given
Description: ECL multispot (MSD) binding assay; antigen spotted on plate, Fab in solution, Ru-labelled anti-kappa detection.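 Note: purified Fab in 1% BSA TBST incubated 1 h at 20 °C with shaking, signal compared with each well's blank, signal/blank ratio of 4 or above counted as binder.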

For experiment [12], the target named is T9, rHuman P-Cadherin/Fc Chimera, CF (R&D Systems Cat#861-PC) (human, UniProt P22223 108-654).
T9 construct: Bought from R&D Systems; Fc part of the bought chimera not given
The experiment is described as above.

Experiment [13] has as its target T10, rHuman IGF-1 sR, CF (R&D Systems Cat#391-GR) (human, UniProt P08069 31-932).
T10 construct: Bought from R&D Systems as a soluble receptor; also called insulin-like growth factor-1 soluble receptor
The experiment is described as above.

Experiment [14] deals with T11, Recombinant Human DLL4 (R&D Systems Cat#1506-D4/CF) (human, UniProt Q9NR61 27-524).
T11 construct: Bought from R&D Systems; also called delta-like protein 4; rHuman DLL4
The experiment is described as above.

Experiment [15] has as its target T12, rHuman HGF R/c-MET/Fc Chimera, CF (R&D Systems Cat#358-MT/CF) (human, UniProt P08581 25-932).
T12 construct: Bought from R&D Systems; also called HGF R/Fc; hepatocyte growth factor receptor; Fc part of the bought chimera not given
The description is as above.

Experiment [16] concerns the target T13, rHuman Notch-1/Fc Chimera, CF (R&D Systems Cat#3647-TK) (human, UniProt P46531 19-526).
T13 construct: Bought recombinant protein; Fc part of the bought chimera not given
Description: ECL (MSD) multispot binding assay, antigen spotted on plate, 20 nM Fab.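 Note: purified Fab incubated 1 h at 20 °C on antigen-spotted plate, bound Fab revealed with TAG detection antibody, ECL read, antigen signal divided by same-well blank, ratio ≥4 counted as hit.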

Experiment [17] addresses T14, rHuman Erythropoietin R/Fc Chimera, CF (R&D Systems Cat#963-ER) (human, UniProt P19235 25-250).
T14 construct: Bought recombinant protein; also called EPO R; EPO R/Fc; Fc part of the bought chimera not given
T14 sequence (looked up): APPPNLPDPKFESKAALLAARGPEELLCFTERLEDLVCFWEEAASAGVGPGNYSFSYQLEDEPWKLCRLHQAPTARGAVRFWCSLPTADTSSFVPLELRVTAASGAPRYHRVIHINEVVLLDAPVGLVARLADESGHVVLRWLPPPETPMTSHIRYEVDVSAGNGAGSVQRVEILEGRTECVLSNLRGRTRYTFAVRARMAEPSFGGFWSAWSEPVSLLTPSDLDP
Described as above.

The target of experiment [18] is T15, Recombinant Human DLL4 (R&D Systems Cat#1506-D4/CF) (human, UniProt Q9NR61 27-524).
T15 construct: Bought recombinant protein; also called delta-like protein 4; rHuman DLL4
The experiment is described as above.

The target of experiment [19] is T16, rHuman IGF-1 sR, (IGF-1 sR), CF (R&D Systems Cat#391-GR) (human, UniProt P08069 31-932).
T16 construct: Bought recombinant soluble receptor; also called insulin-like growth factor-1 soluble receptor
Described as above.

The target of experiment [20] is T17, rHuman CD44/Fc Chimera, CF (R&D Systems Cat#3660-CD) (human, UniProt P16070 21-220).
T17 construct: Bought recombinant protein; Fc part of the bought chimera not given
Described as above.

The target of experiment [21] is T18, rHuman P-Cadherin/Fc Chimera, CF (R&D Systems Cat#861-PC) (human, UniProt P22223 108-654).
T18 construct: Bought recombinant protein; Fc part of the bought chimera not given
The description is as above.

Experiment [22] concerns the target T19, rHuman EGF R/Fc Chimera, CF (R&D Systems Cat#344-ER) (human, UniProt P00533 25-645).
T19 construct: Bought recombinant protein; also called epidermal growth factor receptor; Fc part of the bought chimera not given
Described as above.

The target in experiment [23] is T20, rHuman ErbB2/Fc Chimera, CF (R&D Systems Cat#1129-ER) (human, UniProt P04626 23-652).
T20 construct: Bought recombinant protein; also called human epidermal growth factor 2 receptor; Fc part of the bought chimera not given
Described as above.

B1: Fab VH1-46_IGHD6-6*01_IGHJ1*01 S102A/S103P/S104F/H111F F29A & L6_IGKJ1*01 (Fab, V domains shown)
VH: QVQLVQSGAEVKKPGASVKVSCKASGYTATSYYMHWVRQAPGQGLEWMGIINPSGGSTSYAQKFQGRVTMTRDTSTSTVYMELSSLRSEDTAVYYCAREEYAPFSAEYFQFWGQGTLVTVSS
VL: not shown
notes: Tested as Fab (CH1 with His6/Flag tags; kappa CL), expressed in E. coli; also called APFF F29A
With B1, the “ECL Signal/Noise” value in [1] is 190. Further, the “ELISA (Signal-Noise)” value in experiment [2] worked out at 0.67.

B2: Fab VH1-46_IGHD6-6*01_IGHJ1*01 S102A/S103P/S104F/H111F (APFF) & L6_IGKJ1*01 (Fab, V domains shown)
VH: B1 VH with A29F
VL: not shown
notes: Tested as Fab expressed in E. coli; Heavy chain from Plasmid A (CH1, His6 and Flag tags), kappa light chain from Plasmid C (CL); also called H:APFF & L:wt
Consider B2, for which the ECL signal is 197000 in experiment [3]; 397 in [4]; 354 in experiment [5]; 383 in experiment [6]; 347 in experiment [7]; 347 in experiment [8]. In addition, the ECL signal in experiment [9] was found to be 78400. Moreover, the Signal/Noise in experiment [10] is 694.

B3: Fab VH1-46_IGHD6-6*01_IGHJ1*01 S102A/S103P/S104F/H111F T30A & L6_IGKJ1*01 (Fab, V domains shown)
VH: B1 VH with A29F, T30A
VL: not shown
notes: Tested as Fab (CH1 with His6/Flag tags; kappa CL), expressed in E. coli; also called APFF T30A
On to B3, for which the “ECL Signal/Noise” value in experiment [1] came out at 457. For the same molecule, in [2], the “ELISA (Signal-Noise)” value came to 0.64.

B4: Fab VH1-46_IGHD6-6*01_IGHJ1*01 S102A/S103P/S104F/H111F F29A & L6_IGKJ1*01 (Fab, V domains shown)
VH: B1 VH
VL: not shown
notes: Tested as a Fab made in E. coli; The heavy chain vector (Plasmid A) adds CH1 with His6 and Flag tags; The light chain vector (Plasmid C) adds kappa CL; also called APFF F29A
Regarding B4, the ECL signal in experiment [11] stood at 537; in experiment [12], 508; in [13] it was 439; in experiment [14] it was 109000; in experiment [15] it was 512.

B5: Fab VH1-46_IGHD6-6*01_IGHJ1*01 S102A/S103P/S104F/H111F Y33A & L6_IGKJ1*01 (Fab, V domains shown)
VH: B1 VH with A29F, Y33A
VL: not shown
notes: Tested as Fab (CH1 with His6/Flag tags; kappa CL), expressed in E. coli; also called APFF Y33A
With B5, the “ECL Signal/Noise” value in [1] was 136. The “ELISA (Signal-Noise)” value in experiment [2] is 0.09.

B6: Fab VH1-46_IGHD6-6*01_IGHJ1*01 S102A/S103P/S104F/H111F S31A & L6_IGKJ1*01 (Fab, V domains shown)
VH: B1 VH with A29F, S31A
VL: not shown
notes: Tested as Fab (CH1 with His6/Flag tags; kappa CL), expressed in E. coli; also called APFF S31A
As for B6, the “ECL Signal/Noise” value in [1] worked out at 453. Besides, the “ELISA (Signal-Noise)” value in [2] was found to be 0.47.

B7: Fab VH1-46_IGHD6-6*01_IGHJ1*01 S102A/S103P/S104F/H111F T28A & L6_IGKJ1*01 (Fab, V domains shown)
VH: B1 VH with T28A, A29F
VL: not shown
notes: Tested as Fab (CH1 with His6/Flag tags; kappa CL), expressed in E. coli; also called APFF T28A
Turning to B7, the “ECL Signal/Noise” value in experiment [1] stood at 334. For the same molecule, the “ELISA (Signal-Noise)” value in [2] is 0.77.

B8: Fab VH3-23_IGHD2-21*01>3_IGHJ6*01 H100E/S108P/Y113G/Y111I & V2-13_IGLJ2*01 (Fab, V domains shown)
VH: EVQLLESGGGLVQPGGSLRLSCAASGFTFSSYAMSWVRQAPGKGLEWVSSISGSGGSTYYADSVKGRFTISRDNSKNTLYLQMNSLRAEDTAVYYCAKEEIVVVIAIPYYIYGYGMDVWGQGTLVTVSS
VL: SSELTQDPAVSVALGQTVRITCQGDSLRSYYASWYQQKPGQAPVLVIYGKNNRPSGIPDRFSGSSSGNTASLTITGAQAEDEADYYCNSRDSSGNHLVVFGGGTKLTVL
notes: Fab made in E. coli: VH joined to CH1 (with His and Flag tags, plasmid A) and VL to lambda CL (plasmid E); also called EPG Y111I
With B8, the “ECL signal/blank ratio” value came to 1.8 in [16]; 6.9 in experiment [17]; 1.5 in experiment [18]; 1 in experiment [19]; 1.3 in experiment [20]; 1.9 in [21]. Further, the “ECL signal/blank ratio” value in [22] came out at 1.9; in experiment [23] it was 1.7.

B9: Fab VH3-23_IGHD2-21*01>3_IGHJ6*01 H100E/S108P/Y113G/Y111S & V2-13_IGLJ2*01 (Fab, V domains shown)
VH: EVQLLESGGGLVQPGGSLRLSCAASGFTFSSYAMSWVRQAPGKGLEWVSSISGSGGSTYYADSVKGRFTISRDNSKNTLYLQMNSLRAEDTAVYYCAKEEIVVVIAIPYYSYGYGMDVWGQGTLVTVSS
VL: B8 VL
notes: Fab made in E. coli: VH joined to CH1 (with His and Flag tags, plasmid A) and VL to lambda CL (plasmid E); also called EPG Y111S
Consider B9, for which the “ECL signal/blank ratio” value in experiment [16] is 1.9; in [17] it was 30.1; in experiment [18], 1.7; in experiment [19], 1.3; in experiment [20], 1.2; in [21], 5. The “ECL signal/blank ratio” value in experiment [22] was found to be 1.8; in experiment [23], 2.1.

B10: Fab VH3-23_IGHD2-21*01>3_IGHJ6*01 H100E/S108P/Y113G/Y111N & V2-13_IGLJ2*01 (Fab, V domains shown)
VH: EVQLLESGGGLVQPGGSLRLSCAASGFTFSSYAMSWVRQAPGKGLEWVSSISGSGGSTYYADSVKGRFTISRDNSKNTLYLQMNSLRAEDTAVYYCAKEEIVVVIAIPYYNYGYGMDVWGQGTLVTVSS
VL: B8 VL
notes: Fab made in E. coli: VH joined to CH1 (with His and Flag tags, plasmid A) and VL to lambda CL (plasmid E); also called EPG Y111N
For the molecule B10, the “ECL signal/blank ratio” value in experiment [16] was 1.3; in [17], 9.3; in experiment [18], 1.1; in [19], 0.8; in experiment [20], 0.9; in experiment [21] it was 2.9. Further, the “ECL signal/blank ratio” value was determined as 1.4 in experiment [22] and 1.5 in experiment [23].

B11: Fab VH3-23_IGHD2-21*01>3_IGHJ6*01 H100E/S108P/Y113G/Y110R & V2-13_IGLJ2*01 (Fab, V domains shown)
VH: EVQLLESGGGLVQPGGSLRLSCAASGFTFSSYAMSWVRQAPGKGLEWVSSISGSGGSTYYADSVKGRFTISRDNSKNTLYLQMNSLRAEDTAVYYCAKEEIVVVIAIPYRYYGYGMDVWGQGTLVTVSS
VL: B8 VL
notes: Fab made in E. coli: VH joined to CH1 (with His and Flag tags, plasmid A) and VL to lambda CL (plasmid E); also called EPG Y110R
Take B11: the “ECL signal/blank ratio” value in experiment [16] came to 1.6; in experiment [17], 4.8; in experiment [18], 1.8; in experiment [19] it was 1.4; in experiment [20] it was 1.3; in experiment [22], 1.6. Besides, the “ECL signal/blank ratio” value in experiment [23] came out at 2.1.

B12: Fab VH3-23_IGHD2-21*01>3_IGHJ6*01 H100E/S108P/Y113G/Y111T & V2-13_IGLJ2*01 (Fab, V domains shown)
VH: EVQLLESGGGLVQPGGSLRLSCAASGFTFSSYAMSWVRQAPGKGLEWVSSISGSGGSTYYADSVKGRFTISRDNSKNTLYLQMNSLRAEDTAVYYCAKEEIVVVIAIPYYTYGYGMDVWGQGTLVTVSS
VL: B8 VL
notes: Fab made in E. coli: VH joined to CH1 (with His and Flag tags, plasmid A) and VL to lambda CL (plasmid E); also called EPG Y111T
As for B12, the “ECL signal/blank ratio” value in experiment [16] came out at 2; in [17] it was 38.8; in experiment [18], 2.2; in [19], 1.2; in [20], 1.8; in experiment [21], 6.2.
